In patent US20130225434A1 (BOARD OF TRUSTEES OF THE UNIVERSITY OF ILLINOIS, published 2013):
Substitutions are numbered along the chain they refer to. In names and notes the source's numbering stands. Square brackets hold non-standard residues; d marks the D form. * marks the point of attachment. Biotin = O=C1N[C@H]2[C@H](CS[C@H]2CCCCC(=O)*)N1; pY = N[C@@H](Cc1ccc(OP(=O)(O)O)cc1)C(=O)O; pT = C[C@@H](OP(=O)(O)O)[C@H](N)C(=O)O; pS = N[C@@H](COP(=O)(O)O)C(=O)O

B1: D2 variant of the FHA1 domain, phage-displayed (protein III fusion) (designed binder, not shown: small tags and cut ends)
chain: MENITQPTQQSTQATQRFLIEKFSQEQIGENIVFRVISTTGQIPIRDLSADISQVLKEKRSIKKVWTFGRNPACDYHLGNISRLSNKHFQILLGEDGNLLLNDISTNGTWLNGQKVEKNSNQLLSQGDEITVGVGVESDILSLVIFINDKFKQSLEQNKVDRIRSNLKNT
notes: Selected from a mutagenic library built on the 3C-3S template; one added mutation S34F; also called position 34 F variant
B2: D2 FHA1 variant with W at position 34, phage-displayed (designed binder)
chain: B1 chain with F34W
notes: Made from D2 by Kunkel mutagenesis at position 34; also called S34W; not shown: N-terminal Flag peptide, cloning-site residues and M13 protein III (display carrier)
B3: BRCT-pS (peptide)
peptide: Biotin-SGSAYDI[pS]QVFPFAKKK-NH2
SMILES: CC[C@H](C)[C@H](NC(=O)[C@H](CC(=O)O)NC(=O)[C@H](Cc1ccc(O)cc1)NC(=O)[C@H](C)NC(=O)[C@H](CO)NC(=O)CNC(=O)[C@H](CO)NC(=O)CCCC[C@@H]1SC[C@@H]2NC(=O)N[C@@H]21)C(=O)N[C@@H](COP(=O)(O)O)C(=O)N[C@@H](CCC(N)=O)C(=O)N[C@H](C(=O)N[C@@H](Cc1ccccc1)C(=O)N1CCC[C@H]1C(=O)N[C@@H](Cc1ccccc1)C(=O)N[C@@H](C)C(=O)N[C@@H](CCCCN)C(=O)N[C@@H](CCCCN)C(=O)N[C@@H](CCCCN)C(N)=O)C(C)C
notes: also called Biotin-BRCT-pS

Assays:
[1] = biological target: Rad9 pT peptide used for ITC (SLEVp…) (yeast); test: ITC
[2] = biological target: Rad9-pT peptide with SGS linker (SGS-SLEVp…) (yeast); test: FTS assay, 1 µM protein, 50 µM pT peptide
[3] = biological target: Rad9-pT peptide with SGS linker (SGS-SLEVp…) (yeast); test: FTS assay, 4 µM protein, 50 µM pT peptide
[4] = biological target: Rad9-pT peptide with SGS linker (SGS-SLEVp…) (yeast); test: FTS assay, 1 µM protein, 250 µM pT peptide
[5] = biological target: Rad9-pT peptide with SGS linker (SGS-SLEVp…) (yeast); test: FTS assay, 4 µM protein, 250 µM pT peptide
[6] = biological target: Rad9 pT peptide used for ITC (SLEVp…) (yeast); test: ITC, pT peptide injected into 35 µM FHA1 domain, three repeats
BRCT-pS = biological target: B3; test: phage ELISA; biotinylated peptide on Neutravidin, A405
Experimental: FIG. 9A is a photograph of 96-well plates containing phage supernatants from 96 individual clones, which were isolated after three rounds of selection, heated (50° C.), cooled, and added to microtiter plate wells coated with the phosphopeptide ligand. Binding of phage particles in the wells was monitored with an anti-M13 antibody conjugated to HRP. FIG. 9B is a graph showing the ratio of the ELISA signals for individual phage clones generated with wells contained with the target protein compared to a negative control protein (background).
Phage particles produced from 96 clones isolated after round #3, were heated at 50° C. for 3 hr and cooled to RT. The phage supernatants were then incubated with both the target peptide (500 ng/well) immobilized on NeutrAvidin (1 μg/well) coated plate wells and an unrelated target (background). Binding phage clones were detected using anti-M13 antibody conjugated to HRP (GE Healthcare). The green, colored product of the enzymatic reaction in the microtiter plate wells was measured at 405 nm using the FLUOstar OPTIMA plate reader (BMG Labtech). […] In some cases, the signal over background ratio ranged from 3 to 20 for clones (FIG. 9B).

Rad9-pS = biological target: T1, Rad9-pS (SMILES …); test: phage ELISA; biotinylated peptide on Neutravidin; anti-M13-HRP, A405 [a]
T1 peptide: Biotin-SGSSLEV[pS]EADATFYAKK-NH2
Text: (§1) Binding of phage particles was detected using anti-M13 antibody conjugated to HRP. FIG. 4(b) is a graph of the results of ELISA experiments of GST fusions of the WT FHA1 domain and three of its variants, 3C-3S, 4C-4S, and D2, that bound specifically to the cognate pT peptide (Rad9-pT; shown as solid histograms) immobilized on plastic microtiter plate wells via Neutravidin. Binding was detected using anti-GST antibody conjugated to HRP. The peptide sequences for Rad9-pT, Rad9-T, Rad9-pS, Rad9-pY, Plk1-pT and BRCT-pS are SGSSLEVp[…] (SEQ ID NO: 1), […] (SEQ ID NO: 2), SGSSLEVp[…] (SEQ ID NO: 3), SGSSLEVp[…] (SEQ ID NO: 4), […]p[…] (SEQ ID NO: 5) and SGSAYDIp[…] (SEQ ID NO: 6), respectively. The peptide sequence for the WT FHA1 domain from S. cerevisiae Rad53 protein kinase includes […] (SEQ ID NO:7), which includes residues 1-170 of S. cerevisiae Rad53 (SEQ ID NO:8) (Liao et al. (2000) J. Mol. Biol 304, 941-51; Durocher et al. (1999) Mol Cell 4). […] The β-strands are labeled from 1 to 11 in the WT FHA1 domain structure and the N- and C-termini are noted.

Rad9-pY = biological target: T2, Rad9-pY (SMILES …); test: as above
T2 peptide: Biotin-SGSSLEV[pY]EADATFYAKK-NH2
Text: as §1

Plk1-pT = biological target: T3, Plk1-pT (SMILES …); test: as above
T3 peptide: Biotin-SGSAGPMQS[pT]PLNGAKK-NH2
Text: as §1

[7] = biological target: T4, Rad9-pT peptide with SGS linker (SGS-SLEVpTEADATFYAKK) (yeast, SMILES …); test: phage ELISA, normalised to Flag
T4 construct: also called cognate pT peptide; Rad-pT
T4 peptide: Biotin-SGSSLEV[pT]EADATFYAKK-NH2
Text: Through Kunkel mutagenesis (Yaffe (2002) Nat Rev Mol Cell Bol 3, 177-86), the amino acid residue at position 34 in the β1 strand of the D2 FHA 1 domain was replaced (from the naturally-occurring V) one at a time with each of the other naturally occurring amino acids and binding to the immobilized Rad9-pT peptide was monitored by phage ELISA. Phage binding was detected using anti-M13 antibody conjugated to Horse Radish Peroxidase (HRP). […] All the variants display an N-terminal Flag peptide and the amount of phage particles used for each variant in this experiment has been normalized for this epitope.
To amplify the phage particles displaying the recombinant FHA1 variants, TG1 bacterial cells (5 mL; Stratagene) harboring the phagemid DNA were infected at mid-log (OD₆₀₀ₙₘ=0.5-0.6) with M13K07 helper phage (New England Biolabs) at a multiplicity of infection (MOI) of 20 for 1 h at 37° C. at 150 rpm. Infected cells were centrifuged, and the pellet was resuspended in fresh Luria Bertani medium (LB: 10 g Tryptone, 5 g Yeast extract, and 10 g NaCl per liter) supplemented with 50 μg/mL carbenicillin and 50 μg/ml kanamycin, and phage were amplified overnight at 30° C. at 250 rpm. All of the phage ELISA steps were performed at room temperature. […]

[8] = biological target: T5, WT FHA1 domain of S. cerevisiae Rad53, phage-displayed (protein III fusion on bacteriophage M13) (Saccharomyces cerevisiae; bacteriophage …, UniProt P22216 1-170); test: phage ELISA; biotinylated peptide on Neutravidin; anti-M13-HRP, A405 [a]
T5 construct: not shown: minor coat protein III (pIII, gene III product) of bacteriophage M13
T5 sequence: B1 chain with F34C, S38C, S154C
Text: as §1

[9] = biological target: T6, WT FHA1 domain, GST fusion (Saccharomyces cerevisiae, UniProt P22216 1-170); test: ELISA with GST fusion (cell lysate); biotinylated peptide on Neutravidin; anti-GST-HRP, A405 [b]
T6 construct: Expressed in the bacterial cytoplasm; cell lysate used in the ELISA; The order GST then FHA1 follows the pGEX-2T vector; also called GST fusion of the WT FHA1 domain; FHA1-GST fusion protein; not shown: Glutathione S-transferase (GST) of the pGEX-2T vector (GE Healthcare)
T6 sequence: B1 chain with F34C, S38C, S154C

## WT FHA1 domain, purified with C-terminal six-histidine tag (from UniProt P22216 1-170)
[1]
  stoichiometry: 1
[2]
  Tm shift in the presence of pT peptide: 1.7 ° C.
[3]
  Tm shift in the presence of pT peptide: 1.95 ° C.
[4]
  Tm shift in the presence of pT peptide: 3.8 ° C.
[5]
  Tm shift in the presence of pT peptide: 3.55 ° C.
[6]
  Kd: 1 µM

## B1
BRCT-pS
  binding result: no binding
Rad9-pS
  binding result: no binding
Rad9-pY
  binding result: no binding
Plk1-pT
  binding result: no binding

## B2
[7]
  binding result: no binding

## B3
[8]
  binding result: no binding
[9]
  binding result: no binding
